Among the data in the supplement of paper PMC9732359 are protein stability index values, retold here.

The data set is described as follows: protein stability index of a GFP-peptide fusion (yeast GPS) (PSI 1-4); higher = more stable; sorted into four equal gates, so the index is relative within each strain. Put shortly: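 Tiled 17-residue peptides from yeast proteins were fused downstream of GFP on a plasmid that also expresses Cherry, and the pooled library was carried in yeast. Mid-log cultures grown in leucine-free medium were sorted into four equal gates by GFP/Cherry fluorescence ratio. Plasmids from each gate were PCR-amplified and Illumina-sequenced, and reads were assigned to strains by barcodes. Each peptide's protein stability index is the sum, over gates, of the gate's read frequency multiplied by its gate number.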

± gives the uncertainty stated by the source.

Consider DSTAVALEEGLNEEAVI [YJL039C/NUP192], for which the protein stability index by setting is: (doa10∆) 3.08 ± 0.084; (pdr5∆) 3.12 ± 0.04; (san1∆) 2.68 ± 0.058; (ubr1∆) 2.98 ± 0.05.
As for DILSQILYGLVDKGAIM [YJL039C/NUP192], the protein stability index (doa10∆) is 2.87 ± 0.11, the protein stability index (pdr5∆) came out at 2.87 ± 0.25, the protein stability index (san1∆) came out at 2.95 ± 0.19 and the protein stability index (ubr1∆) was found to be 2.79 ± 0.28.
On to FKSVLPIVLLNTLRKCY [UBP6], for which the protein stability index (doa10∆) turned out to be 1.26 ± 0.11, the protein stability index (pdr5∆) came out at 1.23 ± 0.071, the protein stability index (san1∆) is 1.12 ± 0.16 and the protein stability index (ubr1∆) is 1.18 ± 0.12.
DDEEYDYNDVEVNSKKK [BRR2] had a protein stability index (doa10∆) of 3.3 ± 0.051, a protein stability index (pdr5∆) of 3.18 ± 0.051, a protein stability index (san1∆) of 3.32 ± 0.053 and a protein stability index (ubr1∆) of 3.33 ± 0.036.
The like results for VAKLANWFLEVYASGNP [YML031W/NDC1] were, in that order, 2.1 ± 0.069, 2.09 ± 0.049, 1.89 ± 0.12 and 1.12 ± 0.055.
As for ERLAKVNEMNDQLAQEL [NNF1], the protein stability index by setting is: (doa10∆) 3 ± 0.22; (pdr5∆) 3.42 ± 0.17; (san1∆) 3.28 ± 0.12; (ubr1∆) 2.85 ± 0.18.
For NTTKTADTKAPTFTFGS [YLR335W/NUP2], the protein stability index turned out to be 3.36 ± 0.08 (doa10∆), 3.33 ± 0.063 (pdr5∆), 3.21 ± 0.061 (san1∆) and 3.38 ± 0.057 (ubr1∆).
The like results for NFLSKIRNINVQDALLT [SNF2] were, in that order, 1.63 ± 0.047, 1.99 ± 0.054, 1.77 ± 0.083 and 1.54 ± 0.032.
As for KGNFRTKPFENVEKYPT [SNU114], the protein stability index worked out at 3 ± 0.24 (pdr5∆) and 3.16 ± 0.25 (san1∆).
Turning to KREGKTRLLNIVMQLRK [ISW2], the protein stability index was determined as 2.7 ± 0.078 (doa10∆), 3.02 ± 0.063 (pdr5∆), 3.11 ± 0.054 (san1∆) and 2.97 ± 0.057 (ubr1∆).
For KKMMNTLVHTRVKIANT [SSN2], the protein stability index was 2.69 ± 0.066 (doa10∆), 2.35 ± 0.05 (pdr5∆), 2.67 ± 0.041 (san1∆) and 2.78 ± 0.033 (ubr1∆).
On to NKQPRNESFNRRISSMP [YAR002W/NUP60], for which the protein stability index reads like this: (doa10∆) 2.62 ± 0.068; (pdr5∆) 3.04 ± 0.07; (san1∆) 2.53 ± 0.078; (ubr1∆) 2.99 ± 0.038.
NEVIDKLKNENTDLKDI [PCI8]: the protein stability index worked out at 2.87 ± 0.066 (doa10∆), 3.04 ± 0.053 (pdr5∆), 3.01 ± 0.048 (san1∆) and 3.13 ± 0.041 (ubr1∆).
GPKKNVFYAPNVKNYST [RPC34]: the protein stability index by setting is: (doa10∆) 2.69 ± 0.072; (pdr5∆) 2.56 ± 0.059; (san1∆) 2.91 ± 0.056; (ubr1∆) 2.49 ± 0.044.
For GGLTKQIKEIKEVIELP [RPT6], the protein stability index is, setting by setting: (doa10∆) 3.74 ± 0.27; (san1∆) 3.48 ± 0.27.
On to PPQQTYHFPIFNKYADP [RPN4], for which the protein stability index (doa10∆) came to 2.52 ± 0.046, the protein stability index (pdr5∆) came to 2.8 ± 0.042, the protein stability index (san1∆) was determined as 2.59 ± 0.034 and the protein stability index (ubr1∆) worked out at 2.65 ± 0.03.
Consider EPDLESQISKAEMEADS [SMC4], for which the protein stability index is, setting by setting: (doa10∆) 2.89 ± 0.078; (pdr5∆) 3.39 ± 0.18; (san1∆) 3.43 ± 0.069; (ubr1∆) 2.55 ± 0.17.
Regarding KEYELLTLQEDYIKDEQ [RPT3], the protein stability index (doa10∆) turned out to be 3.53 ± 0.12, the protein stability index (pdr5∆) is 3.13 ± 0.11, the protein stability index (san1∆) came to 3.19 ± 0.083 and the protein stability index (ubr1∆) was 3.25 ± 0.065.
With TRPYILERARDVNIVNR [YCG1], the protein stability index runs as follows: (doa10∆) 3.29 ± 0.1; (pdr5∆) 2.78 ± 0.21; (san1∆) 3.48 ± 0.18; (ubr1∆) 3.08 ± 0.11.
Consider IGARSQGAKTYLERTLD [PRE5], for which the protein stability index reads like this: (doa10∆) 3.36 ± 0.13; (pdr5∆) 3.34 ± 0.069; (san1∆) 3.23 ± 0.07; (ubr1∆) 3.22 ± 0.066.
For DDYYKEIIGGGSKSASK [ISW2], the protein stability index turned out to be 2.37 ± 0.12 (doa10∆), 3.09 ± 0.11 (pdr5∆), 3 ± 0.09 (san1∆) and 2.69 ± 0.086 (ubr1∆).
The like results for ISNGTINIQKKLEPKEI [SIR4] were, in that order, 2.77 ± 0.079, 2.89 ± 0.075, 2.37 ± 0.089 and 3 ± 0.1.
In the same order, the values of QQGQNMSEQQWREQLRN [ROX3] are 2.55 ± 0.071, 2.48 ± 0.055, 2.42 ± 0.086 and 2.23 ± 0.032.
As for QQENSKSGKRKPNIILD [RPC31], the protein stability index reads like this: (doa10∆) 2.83 ± 0.099; (pdr5∆) 2.83 ± 0.086; (san1∆) 2.64 ± 0.089; (ubr1∆) 2.79 ± 0.076.
In the same order, the values of LDTFIKIDGNPDELIKA [PRE5] are 3.19 ± 0.12, 3.19 ± 0.12, 3.31 ± 0.071 and 3.36 ± 0.079.
On to QTIPIQIYGFEGLNQRN [YGR119C/NUP57], for which the protein stability index turned out to be 2.64 ± 0.27 (doa10∆), 2.52 ± 0.16 (san1∆) and 3.08 ± 0.18 (ubr1∆).
